Molecular target: HMGA1a-FLAG (UniProt P17096 1-107)
Test: EMSA

HMGA1a-FLAG, sequence (P17096 whole entry): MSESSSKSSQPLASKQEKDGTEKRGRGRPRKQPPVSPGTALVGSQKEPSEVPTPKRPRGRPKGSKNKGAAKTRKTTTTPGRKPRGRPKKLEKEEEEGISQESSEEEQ

B1: IL2-Rα promoter fragment (-136 to -76) (dsDNA)
DNA 1: ACCGCAAACTATATTGTCATCAAAAAAAAAAAAAAAAAAACACTTCCTATATTTGAGATG
DNA 2: CATCTCAAATATAGGAAGTGTTTTTTTTTTTTTTTTTTTGATGACAATATAGTTTGCGGT
  binding result: binds

Source: paper PMC3064786
